The values below come from patent US20170174769A1 (Regeneron, published 2017).

In assay [1] the target is T1, human KLB and human FGFR1c co-expressed on HEK293/hKLB/hFGFR1c/SRE-luc cells (human, UniProt Q86Z14 1-1044; P11362 22-822). Briefly: cell-based or functional assay.
Assay [2] deals with T1, human KLB and human FGFR1c co-expressed …. Briefly: cell-based or functional assay. The source holds these as a separate data set.
In assay [3] the target is T2, full-length human FGFR1c on HEK293/hFGFR1c/SRE-luc cells (human, UniProt P11362 22-822).
T2 construct: amino acids 1-733 of NP_075593
Briefly: FACS on stable HEK293 cells. Put shortly:
(§1)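 HEK293 cells stably expressing full-length human FGFR1c with an SRE-luciferase reporter, alongside parental, hKLB and hKLB/hFGFR1c lines, stained with anti-KLB/FGFR1c antibodies in PBS with 1% FBS and analyzed by flow cytometry. Geometric mean fluorescence of viable cells was normalized to unstained cells to give binding ratios.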

In assay [4] the target is T3, full-length human KLB on HEK293/hKLB/SRE-luc cells (human, UniProt Q86Z14 1-1044).
T3 construct: amino acids 1-1044 of NP_783864.1
T3 sequence: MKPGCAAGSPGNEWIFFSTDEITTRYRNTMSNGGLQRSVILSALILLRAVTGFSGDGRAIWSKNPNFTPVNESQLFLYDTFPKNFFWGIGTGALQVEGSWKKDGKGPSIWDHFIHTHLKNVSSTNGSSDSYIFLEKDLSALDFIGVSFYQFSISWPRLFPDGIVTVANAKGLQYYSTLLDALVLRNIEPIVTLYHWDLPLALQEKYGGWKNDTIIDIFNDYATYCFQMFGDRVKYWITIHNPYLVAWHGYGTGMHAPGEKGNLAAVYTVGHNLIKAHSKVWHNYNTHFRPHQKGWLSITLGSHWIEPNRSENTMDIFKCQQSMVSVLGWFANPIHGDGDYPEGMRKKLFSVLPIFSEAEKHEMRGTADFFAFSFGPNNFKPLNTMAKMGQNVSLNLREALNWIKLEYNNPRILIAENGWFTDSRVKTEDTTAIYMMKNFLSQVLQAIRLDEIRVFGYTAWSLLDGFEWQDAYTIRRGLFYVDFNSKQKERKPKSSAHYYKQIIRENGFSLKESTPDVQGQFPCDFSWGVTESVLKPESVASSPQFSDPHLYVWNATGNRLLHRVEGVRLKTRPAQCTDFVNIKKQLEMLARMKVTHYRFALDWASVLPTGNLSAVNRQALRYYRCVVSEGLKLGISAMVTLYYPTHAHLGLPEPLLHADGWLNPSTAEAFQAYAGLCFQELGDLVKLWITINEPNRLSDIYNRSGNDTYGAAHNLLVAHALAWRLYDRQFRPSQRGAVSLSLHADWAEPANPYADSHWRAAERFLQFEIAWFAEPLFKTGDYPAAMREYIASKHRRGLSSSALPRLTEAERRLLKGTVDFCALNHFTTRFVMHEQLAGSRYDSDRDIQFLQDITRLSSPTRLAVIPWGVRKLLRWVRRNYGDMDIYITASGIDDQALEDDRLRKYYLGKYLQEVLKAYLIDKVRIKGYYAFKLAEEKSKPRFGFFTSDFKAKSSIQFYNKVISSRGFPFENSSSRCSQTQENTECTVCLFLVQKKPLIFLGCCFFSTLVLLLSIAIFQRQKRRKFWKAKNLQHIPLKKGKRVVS
Briefly: FACS on stable HEK293 cells. Summed up: as §1

T2 sequence (P11362 other isoform, or with tags, fused parts or gaps limits assumed): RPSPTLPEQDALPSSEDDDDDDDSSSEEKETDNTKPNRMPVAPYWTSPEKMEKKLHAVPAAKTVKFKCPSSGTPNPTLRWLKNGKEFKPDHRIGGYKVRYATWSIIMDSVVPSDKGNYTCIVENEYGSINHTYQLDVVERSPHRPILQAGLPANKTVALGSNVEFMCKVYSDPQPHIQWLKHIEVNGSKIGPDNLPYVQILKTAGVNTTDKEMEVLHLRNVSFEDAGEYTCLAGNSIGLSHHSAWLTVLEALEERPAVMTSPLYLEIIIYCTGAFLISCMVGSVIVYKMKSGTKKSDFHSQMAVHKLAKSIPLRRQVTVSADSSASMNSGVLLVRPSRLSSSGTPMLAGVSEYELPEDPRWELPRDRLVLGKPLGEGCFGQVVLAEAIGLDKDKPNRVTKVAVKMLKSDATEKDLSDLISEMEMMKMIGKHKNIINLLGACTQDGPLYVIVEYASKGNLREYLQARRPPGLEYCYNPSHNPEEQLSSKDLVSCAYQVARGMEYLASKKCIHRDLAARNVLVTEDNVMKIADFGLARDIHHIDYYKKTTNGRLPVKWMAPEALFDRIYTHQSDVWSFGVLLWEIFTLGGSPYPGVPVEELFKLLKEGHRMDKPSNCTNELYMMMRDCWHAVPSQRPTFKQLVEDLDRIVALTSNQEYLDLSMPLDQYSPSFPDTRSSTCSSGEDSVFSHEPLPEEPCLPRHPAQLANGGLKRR

B1: H2aM8093N (antibody, V domains shown)
VH: QVQLVQSGAEVKRPGSSVKVSCKASGDTFSTYAISWVRQAPGQGLEWMGGIIPVFGTTNYAQKFQDRVTITTDESTRTAYMELSSLRSEDTAVYYCAGIAGPDYWGQGTLVTVSS
VL: DIQMTQSPSSLSASVGDRVTITCRASQGIRNYLAWFQQKPGKAPKSLIYLATSLQSGVPSKFSGSGSGTDFTLTISSLQPEDFATYYCQQYYSYPWTFGQGTKVEIK
notes: mouse IgG2 Fc (H2aM prefix)
Regarding B1, in assay [1], the “EC50, SRE-luc activation without ligand” value is 0.068 nM and the “Maximum Activation (%) without ligand” value was found to be 1%. Moreover, in assay [2], the “IC50, inhibition of 1 nM hFGF21” value is 0.067 nM and the “Maximum Inhibition (%) of 1 nM hFGF21” value is 65%. For the same molecule, the “binding ratio to unstained cells” value in assay [3] was found to be 1 fold. In assay [4], the “binding ratio to unstained cells” value was 15 fold.

B2: H4H8837P (antibody, V domains shown)
VH: QVQLVESGGGVVQPGRSLRLSCAASGFTFNSYAMHWVRQAPGMGLEWVAVISSDGSNKYYADSVRGRFTVSRDNSKNTLYLQMNSLRSEDTAVYYCAKDGRGYSSFSHFGMDVWGQGTTVTVSS
VL: DIQMTQSPSTLSASVGDRVTITCRASQSIGSWLAWYQQKPGKAPKLLIYKTSSLESGVPSRFSGSGSGTEFTLTISSLQPDDFASYYCQQYNSYSFGQGTKVEIK
notes: human IgG4 Fc (H4H prefix)
For B2, in assay [1], the “EC50, SRE-luc activation without ligand” value is 0.12 nM and the “Maximum Activation (%) without ligand” value came out at 1%. In assay [2], the “IC50, inhibition of 1 nM hFGF21” value is 0.08 nM and the “Maximum Inhibition (%) of 1 nM hFGF21” value came out at 51%. In assay [3], the “binding ratio to unstained cells” value is 2 fold. The “binding ratio to unstained cells” value in assay [4] is 13 fold.

B3: H2aM8832N (antibody, V domains shown)
VH: QVQLVESGGGVVQPGRSLRLSCAASGFTFSRYGMHWVRQAPGKGLEWVAVIWYDGTNKYYEDSLKGRFTISRDNSKNTLYLQMNSLRAEDSAVYYCARDQGKYIDYWGQGTLVTVSS
VL: AIQMTQSPSSLSASVGDRVTITCRTSQDIRNDLGWYQQKPGKVPNLLIYAASTLQSGVPSRFSGSGSGTDFTLTISSLQPEDFATYYCLQDYNYPFTFGPGTKVDIK
notes: mouse IgG2 Fc (H2aM prefix)
On to B3, for which, in assay [1], the “EC50, SRE-luc activation without ligand” value amounted to 0.75 nM and the “Maximum Activation (%) without ligand” value was 4%. For the same molecule, in assay [3], the “binding ratio to unstained cells” value came to 6 fold. For the same molecule, the “binding ratio to unstained cells” value in assay [4] was determined as 2 fold.

B4: H1H8899P (antibody, V domains shown)
VH: EVQLVESGGGLVQPGGSLRLSCAASGFTFSSHWMSWVRQAPGKGLEWVANIKQDGSEKYYVDSVKGRFTISRDNAKNSLYLQISSLRAEDTAVYYCASNWNFLFDFWGQGTLVTVSS
VL: not shown
As to B4, in assay [2], the “IC50, inhibition of 1 nM hFGF21” value stood at 0.04 nM and the “Maximum Inhibition (%) of 1 nM hFGF21” value worked out at 20%. The “binding ratio to unstained cells” value in assay [3] came out at 5 fold. Besides, in assay [4], the “binding ratio to unstained cells” value came out at 3 fold.

B5: H2aM8109N (antibody, V domains shown)
VH: QVQVVESGGGVVQPGRSLRLSCAASGFTFSSYGLHWVRQAPGKGLEWVAVIWHDGSHKYYADSVKGRFTISRDNSKNTLYLQMNSLRAEDTAVYYCARDGIPVAEDYYFYGMDVWGQGTTVTVSS
VL: DIQMTQSPSSLSASVGDRVTITCRASQGIRNDLGWYQQKPGKAPKRLIYAASSLQSGVPSRFSGSGSGTEFTLTISSLQPEDFAIYYCLQHNSLTFGGGTKVEIK
notes: mouse IgG2 Fc (H2aM prefix)
Consider B5, for which, in assay [1], the “EC50, SRE-luc activation without ligand” value was 3.3 nM and the “Maximum Activation (%) without ligand” value was found to be 0.5%. Further, in assay [2], the “IC50, inhibition of 1 nM hFGF21” value came out at 0.033 nM and the “Maximum Inhibition (%) of 1 nM hFGF21” value stood at 23%. Also, the “binding ratio to unstained cells” value in assay [3] is 7 fold. Further, the “binding ratio to unstained cells” value in assay [4] is 21 fold.

B6: H2aM8092N (antibody, V domains shown)
VH: QVQLQESGPGLVKPSETLSLTCTVSGGSISSYYWSWIRQPPGKGLDWIGHIYYSGTTYYNPSLKSRVSISLDTSKNQFSLKLSSVTAADTAVYYCARHLRGYSSGREFDYWGQGTLVTVSS
VL: DIQMTQSPSSLSASVGGRVSLTCRASQSIFSYLNWYQQKPGKAPKLLIYAASNLQSGVPSRFSGSGSGTDFTLTISSLQPEDFATYSCQQSYNIPYTFGQGTKLEIK
notes: mouse IgG2 Fc (H2aM prefix); also called H2M8092N
B6: in assay [1], the “EC50, SRE-luc activation without ligand” value worked out at 0.2 nM and the “Maximum Activation (%) without ligand” value turned out to be 1%. For the same molecule, in assay [2], the “IC50, inhibition of 1 nM hFGF21” value came to 0.12 nM and the “Maximum Inhibition (%) of 1 nM hFGF21” value was 50%. Also, the “binding ratio to unstained cells” value in assay [3] stood at 1 fold. Further, the “binding ratio to unstained cells” value in assay [4] was 15 fold.

B7: H4H8852P (antibody, V domains shown)
VH: QVQLQESGPGLVKPSETLSLTCTVSGGSISSYYWSWIRQPPGKGLEWIGYIYSSGIIKYNPSLKSRVTISADTSKNQFSLKLSSVTAADTAVYYCARHGIFGVMEYFQRWGQGTLVTVSS
VL: DIQMTQSPSSLSASIGDRVTITCQASQDIGNFLNWYQQKPGKAPTLLIYDASNMETGVPSRFSGSGSGTYFTFTISSLQPEDVATYYCQQYDNLPLTFGGGTKVEIK
notes: human IgG4 Fc (H4H prefix)
Turning to B7, in assay [1], the “EC50, SRE-luc activation without ligand” value was determined as 0.21 nM and the “Maximum Activation (%) without ligand” value was determined as 5%. For the same molecule, in assay [2], the “IC50, inhibition of 1 nM hFGF21” value was found to be 0.38 nM and the “Maximum Inhibition (%) of 1 nM hFGF21” value was 101%. Also, the “binding ratio to unstained cells” value in assay [3] amounted to 1 fold. The “binding ratio to unstained cells” value in assay [4] was determined as 7 fold.

B8: H2aM8091N (antibody, V domains shown)
VH: QVQLVQSGADMKKPGASVKVSCKASGYTFTTYGINWVRQAPGQGLEWMGWISAYSGITNYAQSFQGRVTMTTDTSTSTAYMELRSLRSDDTAVYYCARGGYNWATGDYFDYWGQGTLVTVSS
VL: DIQMTQSPSTLSASIGDRVTITCRASQSISSWLAWYQQKPGKAPKFLIYKASSLASGVPSRFSGSGSGTEFTLTISSLQPDDFATYYCQQYDSYSPYTFGQGTKVEIK
notes: mouse IgG2 Fc (H2aM prefix); also called H2M8091N
For the molecule B8, in assay [1], the “EC50, SRE-luc activation without ligand” value was 3.6 nM and the “Maximum Activation (%) without ligand” value is 1%. Further, in assay [2], the “IC50, inhibition of 1 nM hFGF21” value stood at 1.5 nM and the “Maximum Inhibition (%) of 1 nM hFGF21” value amounted to 106%. In assay [3], the “binding ratio to unstained cells” value was 1 fold. The “binding ratio to unstained cells” value in assay [4] was 8 fold.

B9: H1M8115N (antibody, V domains shown)
VH: QVQLVQSGAEVKKPGSSVKVSCKASGGTFSTYEISWVRQAPGQGLEWMGGIIPVFGTTHYAQKFQDSVTITTDESTGTAFMELSSLKSEDTAVYYCARGGAGGDNWGQGTLVTVSS
VL: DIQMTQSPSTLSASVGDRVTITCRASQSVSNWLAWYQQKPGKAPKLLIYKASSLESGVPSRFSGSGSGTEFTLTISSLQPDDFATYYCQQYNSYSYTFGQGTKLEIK
notes: H1M Fc prefix (mouse Fc)
For B9, in assay [1], the “EC50, SRE-luc activation without ligand” value is 0.053 nM and the “Maximum Activation (%) without ligand” value amounted to 1%. Also, in assay [2], the “IC50, inhibition of 1 nM hFGF21” value turned out to be 0.09 nM and the “Maximum Inhibition (%) of 1 nM hFGF21” value is 65%. Besides, the “binding ratio to unstained cells” value in assay [3] came out at 2 fold. The “binding ratio to unstained cells” value in assay [4] worked out at 13 fold.

B10: H4H8859P (antibody, V domains shown)
VH: EVQLVESGGSVVRPGGSLRLSCAASGFTFDVYGMSWVRQAPGKGLEWVSGINWIGGSTGYADSVKGRFTISRDNAKNSLYLQMNSLRAEDTALYYCTREEDYWGQGTLVTVSS
VL: DVVMTQSPLSLAVTLGQPASISCRSSQSLVYSDGNTYLNWFQQRPGQSPRRLFYKVSNRDSGVPDRFSGSGSGTDFTLKISRVEAEDVGIYYCMQGIKWPLTFGGGTKVEIK
notes: human IgG4 Fc (H4H prefix)
On to B10, for which the “binding ratio to unstained cells” value in assay [3] and in assay [4] was 5 fold each time.

B11: H4H8870P (antibody, V domains shown)
VH: EVQLVESGGGVVRPGGSLRLSCAASGFKFDVYGMSWVRQLPGKGLEWVSGISWTGGSSGYADSVKGRFTISRDNGKKSLYLQMNSLRAEDTALYYCTREEDYWGQGTLVTVSS
VL: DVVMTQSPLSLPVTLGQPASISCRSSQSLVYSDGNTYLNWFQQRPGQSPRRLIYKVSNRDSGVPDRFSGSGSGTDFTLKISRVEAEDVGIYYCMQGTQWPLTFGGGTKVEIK
notes: human IgG4 Fc (H4H prefix)
In the case of B11, the “binding ratio to unstained cells” value was 5 fold in assay [3] and 4 fold in assay [4].
